Experimental data published in the DeepSol protein solubility set.

Experiment: soluble on expression in E. coli; label from the status in PepcDB or PDB records

Sequence	soluble on expression in E. coli
MNFNKLKFGATIGIIGGGQLGKMMAQSAQKMGYKVVVLDPSEDCPCRYVAHEFIQAKYDDEKALNQLGQKCDVITYEFENISAQQLKLLCEKYNIPQGYQAIQLLQDRLTEKETLKSAGTKVVPFISVKESTDIDKAIETLGYPFIVKTRFGGYDGKGQVLINNEKDLQEGFKLIETSECVAEKYLNIKKEVSLTVTRGNNNQITFFPLQENEHRNQILFKTIVPARIDKTAEAKEQVNKIIQSIHFIGTFTVEFFIDSNNQLYVNEIAPRPHNSGHYSIEACDYSQFDTHILAVTGQSLPNSIELLKPAVMMNLLGKDLDLLENEFNEHPEWHLHIYGKSGRKDSRKMGHMTVLTNDVNQTEQDMYAKFEGSN	soluble
MNGGEKLESIPIDLIIEIHSRLPAESVARFRCVSKLWGSMFRRPYFTELFLTRSRARPRLLFVLQHNRKWSFSVFSSPQNQNIYEKPSFVVADFHMKFSVSTFPDFHSCSGLIHFSMMKGAYTVPVVCNPRTGQYAVLPKLTRTRYENSYSFVGYDPIEKQIKVLFMSDPDSGDDHRILTLGTTEKMLGRKIECSLTHNILSNEGVCINGVLYYKASRIVESSSDDDTSDDDDDDHERSDVIVCFDFRCEKFEFIVICFYGQLINSVQLSLKQKSHQKLDLII	soluble
MNGKEIGEKNSKKYSFEVDSRSVYKCVQCGTCRSVCPVFDVVGWESANTRGRMLIIKSLLEGRPPSEDVLPSLASCTTCGICAAKCPAGANPPEVVEAARAQLVKCGVTTEAQLEHHHHHH	not soluble
MNGNIIGEDEKGVALFVEDNSGNEHEIGVNSEGDIFHHADNVIPDNPSERSDKEDETFSQVRRFARYHVYREKGYDTIPTDENPDRIAAVLLAIIDLDDEEFENRFKPLYKQVMSHERPDVEPSLDLPDSVYHGGEPCYKQNIYLEESLEEMKSTVSEQLVESIGQEQITEVLQADSGDFFSRAASLFGGPNGNYGGLTIDGISGIDTVHLVDGKEQTIKSDDPFERGPDARLELYPSNFDFEAFRFYIGYNLICQIRDCFIGMGVEPPAQYRVLGPGKDKYTGKYHAFDFYPEYHNPGATIPGYIRPAPI	not soluble
MNGNSTNNEQLQQELATTQDQVASIIESFVELGVSIYDFPGTPEATKGMITNLQRNVDRLYKLNVRSNDPQSSLSKVDIPLEVVQYIEDGRNPDIYTREFVEAIRRSNQYQRGKMHGLKQLRDSLADKIVDEFPELKEPVEDIIKRTSPIDNVSNTH	not soluble
MNGYIINIRYQQMGRVIYMFFFAIFGIQDKNKHIGNCNNIVCPSCGRLSMYEVYKYYKYFHIFFLPIFKWDVRYIVKTSCCGCLYELDPLVGKEFEKNPSTEIREENLQRIDRYSPFKYCSNCRTEVPVEYSYCPYCGERLLEHHHHHH	not soluble
MNHKAFAKFPSSASISPNPFTVSIPDEQLDDLKTLVRLSKIAPPTYESLQADGRFGITSEWLTTMREKWLSEFDWRPFEARLNSFPQFTTEIEGLTIHFAALFSEREDAVPIALLHGWPGSFVEFYPILQLFREEYTPETLPFHLVVPSLPGYTFSSGPPLDKDFGLMDNARVVDQLMKDLGFGSGYIIQGGDIGSFVGRLLGVGFDACKAVHLNFCNMSAPPEGPSIESLSAAEKEGIARMEKFMTDGYAYAMEHSTRPSTIGHVLSSSPIALLAWIGEKYLQWVDKPLPSETILEMVSLYWLTESFPRAIHTYREWVPTASAPNGATPYQKELYIHKPFGFSFFPKDLVPVPRSWIATTGNLVFFRDHAEGGHFAALERPRELKTDLTAFVEQVWQKGRSHHHHHH	soluble
MNIQAIDTRHGTANQHSFSNGNCLPYTGVPFGMNFYAPQTTDQKGSWWFHPEDRTFQGYRVTHQPSPWMGDFSHLLMTPVSGSLSELSLFHAQSSYRPEESLFSPVEINLTQLRYQITSQLIPSMYGGILTIDYQQKDNHLLLTLPGRYQVKQLDDHQVAVKVINYSGCEDPDFSFYFVLHFEQPLTKWFAPSSGLEHHHHHH	not soluble
MNITVPKKLLSDQLSLLERIVPSRSANPLYTYLGLYAEEGALILFGTNGEVDLEVRLPAEAQSLPRVLVPAQPFFQLVRSLPGDLVALGLASEPGQGGQLELSSGRFRTRLSLAPAEGYPELLVPEGEDKGAFPLRTRMPSGELVKALTHVRYAASNEEYRAIFRGVQLEFSPQGFRAVASDGYRLALYDLPLPQGFQAKAVVPARSVDEMVRVLKGADGAEADLALGEGVLALALEGGSGVRMALRLMEGEFPDYQRVIPQEFALKVQVEGEALREAVRRVSVLSDRQNHRVDLLLEEGRILLSAEGDYGKGQEEVPAQVEGPGMAVAYNARYLLEALAPVGDRAHLGISGPTSPSLIWGDGEGYRAVVVPLRV	soluble
MNIVLMGLPGAGKGTQAERIVEKYGIPHISTGDMFRAAMKEETPLGLEAKSYIDKGELVPDEVTIGIVRERLSKSDCERGFLLDGFPRTVAQAEALEEILEEMGRPIDYVINIQVDKEELMERLTGRRICSVCGTTYHLVFNPPKTPGICDKDGGELYQRADDNEETVTKRLEVNMKQTAPLLAFYDSKEVLVNVNGQQDIQDVFADVKVILGGLKQ	soluble
MNKANPKNIPPLAPKKVFIKTYGCQMNVYDSQRMTDSLSSKGYVATQTPNDADLILVNTCHIREKAAEKLYSDLGRLRVMRQERTPDKPLMVGVTGCVAQAEGSEILRRAPIVDLVIGPQMYHRLPDLLEQTKQGKKIVATEYAVEDKFAHLPPHNKRAVRKRGVSAFLTVQEGCDKFCTFCVVPYTRGAEISRSVEQITEEARQLIEAGVKEITLLGQNVNGWHGQNVNGKTWRLGDLLYHLAKLDGLKRLRYTTSHPRDMDDSLIAAHRDLDILMPYLHLPVQSGSDRILKAMNRQHKSIHYLQLIEKIRNARPDIAFSGDFIVGFPGETDEDFEETIKLIKQVEYSSAYSFKYSPRPGTVGATMKNHVEEAVKDARLQHLQVLLLEQQNAFLRSKIGQTTDVLIEKAGRHSGQMVGRSPWLLPVVVDTQASTGTVIPIHIKNTSSNSFVGEMTNM	not soluble
MNKDTVLNVTVMGREFRIHCPGEEREELLLAVSCLNRKMQEIKSAGKIAGTEQIAIAAAISMTHELLSIRSQRGFDMNEFKRRIELLECRVSDALTDQGIYKNS	not soluble
MNKIFLTAAALVLGACGFHLKGADGISPPLTYRSWHIEGGQALQFPLETALYQASGRVDDAAGAQMTLRIDSVSQNKETYTVTRAAVINEYLLILTVEAQVLKRGEPVGKPMTVSVRRILDYADNEILGKQEEEETLWAEMRQDVAEQIVRRLTFLKAELEHHHHHH	soluble
MNKIHLCTLAVLTSLSFSSLAKDCDANLLPSWKDSDSKTAIVNFVEQSTDSSKATFIPVSDRIAVFDNDGTLWSEKPIYFQIAFALDQIKALAKTHPEWKTQEPFKSVIENDLEKVFAGGKESLLQIMKVTHSGMTVEEYQQSVEQWLAAAKDKRFGKAYNDLTFKPMREMLTYLQENNFKTYIVSGGGVDFMRVWAPEAYNIPEEQIIGSALKYEYSFNDGQPKVMKLGELLTLDDKEVKVENIQYIIGKKPVLAVGNSDGDQAMMQWATSQPNSMAMIVHHTDEAREWKYDRQSDVGRLDKALDEANERDNWQLIDMKNDWCAVY	not soluble
MNKLHKGWFTEFSPDDLEKMNGASDEEPTKVLKSDGQEMGGAWPGQAFSLQVKKVLFHEKSKYQDVLVFESTTYGNVLVLDGIVQATERDEFSYQEMLAHLPMFAHPDPKRVLIIGGGDGGILREVLKHESVEKVTMCEIDEMVIDVAKKFLPGMSCGFSHPKLDLFCGDGFEFLKNHKNEFDVIITDSSDPVGPAESLFGQSYYELLRDALKEDGILSSQGESVWLHLPLIAHLVAFNRKIFPAVTYAQSIVSTYPSGSMGYLICAKNANRDVTTPARTLTAEQIKALNLRFYNSEVHKAAFVLPQFVKNALE	soluble
MNKQIDLPIADVQGSLDTRHIAIDRVGIKAIRHPVVVADKGGGSQHTVAQFNMYVNLPHNFKGTHMSRFVEILNSHEREISVESFEEILRSMVSRLESDSGHIEMAFPYFINKSAPVSGVKSLLDYEVTFIGEIKHGNQYSFTMKVIVPVTSLCPCSKKISDYGAHNQRSHVTISVRTNSFIWIEDIIRIAEEQASCELYGLLKRPDEKYVTERAYNNPKFVEDIVRDVAEVLNHDDRIDAYIVESENFESIHNHSAYALIERDKRIR	soluble
MNKQPGQQPLRSLSLTSAAKSPEEVEPEQDSKKGEPRAKAAGFGGGGGGGKRLPEARSTPMVIPNQVAAMPVQMTGFVQLVANNILSAIAHTNSVMVVQCIKPLEIFTGFETPNRYVVHDMYCRPLLYCMERSNIFARQYEGNDRNFGMQIMDTHGAQVMTCFRGRPCCSTDDFLSTQFLDQQIGMMKKECCNPNFELVGSGCNQPLLIQSPGCAGCGGTQKFPVMTFNGVLVGEIVRLYPGFMQEMFTDADTYIVHFPMDMPPILKLLLVTSVFLIDFTYFEDRNQDQHRNGGMHSGMHSSF	not soluble
MNKVAIAVAAVVAGSSALLNSAQAEMYIGGKVGMTTLDDACYLNSPCDDEAFGAGLHIGYDFTDFIGLEYGVDFLGDYKANFKSGASTVDTIDGNLTALTLAPKFNWHLNDSWNLFAKIGGAYMMSEDEKDFVATGSLGAEYSIDRNWSVRAEYQRYQDMSDDVWDDMDANFFGIGVNYKFAAAPVVAAVVTEEVVEPDPEPVLMSKVH	not soluble
MNLEGLEMIAVLIVIVLFVKLLEQFGLIEAGLEDSVEDELEMATVRHRPEALELLEAQSKFTKKELQILYRGFKNECPSGVVNEETFKEIYSQFFPQGDSTTYAHFLFNAFDTDHNGAVSFEDFIKGLSILLRGTVQEKLNWAFNLYDINKDGYITKEEMLDIMKAIYDMMGKCTYPVLKEDAPRQHVETFFQKMDKNKDGVVTIDEFIESCQKDENIMRSMQLFENVI	soluble
MNLFFEKTGATNVAEFSVSEIAGALKRVVEEKFGYVRVRGEISGYRGAHASGHAYFALKDDKARLEAVIWRGIMEKLKFPPEEGMEVIAVGKLTTYPGSSKYQIVIEALEPTGVGALMTLLENRKKKFAEEGLFDEEKKKPLPYMPKIIGVVTSPTGAVIRDIIHRISDRFPLHILVWPVRVQGETSGREVAAAVKGFNVLPLEGLIPKPDLLIVARGGGSLEDLWGFNDEVVVRAVYESSLPVISAVGHETDWTLIDYVADWRAPTPTAAAEKAVPVKIDLEVYVVSLGARLRTGLARYFDFHQQKLRAIIRALPTADQLFALPRRGFDEISSRLERALCVSCDKKRLYFHTLAIRFTPRLLNTEKAQHSAKEYTARLHRAFVHIVEKQRAQLEIAFRLLKSTSYQNILERGFVLALGQNNKPIKRLAQIPEKEQINLRFFDGEISVITQESFFNRSSKSKRIKSKQDDQGTLF	not soluble
MNLGLCMADPDFGVYHHSSREESERLRYMARIMFTEAFGKIGIDQDADMNIIDVGCGLGFLTILCADYFKNSRITAIDTFSMGSLKDNSRERLIENLRLADVLDRVTVVEADITKPFNIEDKFDLAVSNLVFHNTGRQRFSVYRNVWNVLKCGSYFINADGFIRKNVASIFVDPFRADMSKISSMYEPEFAMEPKDQKRNAVWRYILVGLRSKCSDV	not soluble
MNLGQTLVGIATWPARAGLAAADTGLNMAGAAVDMAKQALGDAGGASGSTSMANMLGIDDTIARANRLARLLDDDMPLGRAIAPNGPMDRMLRPGGVVDLLTQPGGLLDRLTAEGGAMQRALQPGGLADQLLAEDGLIERVLSEDGLADRLLAEGGLIDKITAKDGPLEQLADVADTLARLTPGMEALEPAIATLQDAVIALTMVVNPLSSIAERIPLPGRRPARRSSSRSVRSQRVVDSE	not soluble
MNLQAREGAPLNRYYDPYFACDAVKLLPGEYFASGEDLVIVTVLGSCVSVCLRDPLNGIAGMNHFMLPERGLGGDPASPSARYGSHAMELLINRMLALGASRERLQAKVFGGGSVLRQISAAIGQRNVEFTLDYLATERIPLLASDVLEAFPRKIYFFPRNGRVLVKSLVELKNDTVLQRERDYRRRIDRNADGGPIDLF	not soluble
